Laboratory results from paper PMC11036078, “PD‐1 inhibition with retifanlimab and/or arginase inhibition with INCB001158 in Japanese patients with solid tumors: A phase I study” (Cancer Medicine, 2024).
“And” between values parts separate entries of the source, which are not always exact repeats. Equal values may be shown once. “Also recorded” adds a separate entry of the source. Read-outs that look alike come from different tables or passages of the source.

Tests used:
[1] = Safety and tolerability (TEAEs, DLTs, irAEs; NCI CTCAE v5.0), phase Ib POD1UM-104; conditions: in vivo
Procedure: This was a phase Ib, open‐label, multicenter study (POD1UM‐104 [NCT03910530]). The study was conducted in 2 parts. In Part 1, patients received single‐agent retifanlimab or escalating doses of single‐agent INCB001158 to confirm the RP2D of each agent. Single‐agent dosing was performed to comply with local regulations. In Part 2, patients received the combination of retifanlimab and INCB001158 at their respective RP2D determined in Part 1, to further explore safety and preliminary evidence of clinical activity. Treatment cycles in Part 1 and Part 2 were 28 days, and patients could receive treatment for up to 2 years, or until disease progression, unacceptable toxicity, death, or patient withdrawal.
In Part 1, 6 patients received retifanlimab 500 mg every 4 weeks (Q4W), given as an i.v. infusion over 60 min; this dose was based on the RP2D determined from global studies. The starting dose of INCB001158 was 75 mg taken orally twice daily (BID). Dose escalation of INCB001158 followed a standard 3 + 3 design; if 75 mg BID was deemed to be tolerable in at least 3 patients, a 100‐mg BID dose level cohort comprising at least 3 patients would be opened.
DLTs were assessed by the investigator according to the National Cancer Institute (NCI) Common Terminology Criteria for Adverse Events (CTCAE) v5.0 criteria (Table S1).
The primary endpoints of the study were safety, tolerability, DLTs, and RP2D of single‐agent retifanlimab, INCB001158, and the combination. Adverse events (AEs) were graded by NCI CTCAE v5.0, and immune‐related adverse events (irAEs) were monitored as AEs of special interest. Physical examinations, monitoring of vital signs, electrocardiograms, and laboratory assessments were conducted throughout the study.
(§1) Safety and efficacy analyses were conducted in the full analysis set, which comprised all enrolled patients who received at least 1 dose of the study drug.
(§2) Safety data were summarized using descriptive statistics. PK parameters were summarized by study part, treatment regimen, cohort, dose levels, and/or visit. ORR and DCR were reported with their exact 95% confidence intervals (CIs); DOR was based on the Kaplan–Meier estimate of the distribution function, and the estimated median along with 95% CI was reported. Statistical analyses were performed using SAS® software v9.4 or later (SAS Institute Inc., Cary, NC, USA).

[2] = Retifanlimab serum pharmacokinetics (electrochemiluminescence immunoassay, noncompartmental analysis); format: in vivo, Japanese patients; conditions: for Retifanlimab tmax: median (min, max)
Procedure: (§3) Pharmacokinetics of single‐agent retifanlimab and INCB001158, and the combination, were secondary endpoints of the study. The detection of anti‐drug antibodies (ADAs) was an exploratory endpoint. Blood samples for retifanlimab PK assessments were taken on days 1 (−2 h pre‐dose, end of infusion, and 6 h post‐dose), 2, 8, and 15 (no specified time) of cycle 1, day 1 of cycles 2–8 (−2 h pre‐dose, and end of infusion on cycles 2 and 6 only), and day 1 of every 4 cycles after cycle 8 (−2 h pre‐dose). Samples for ADA assessment were collected at the same time as for PK analysis, and an additional sample was collected at safety follow‐up on day 15 (no specified time). Blood samples for INCB001158 were collected pre‐dose, 0.5, 1, 2, 4, 6, and 8 h post‐dose on days 1 and 15 of cycle 1, 12 h post‐dose on day 1 of cycle 1, and pre‐dose on days 2 and 8 for cycle 1, and day 1 of cycle 2. Serum concentrations of retifanlimab were determined using an electrochemiluminescence immunoassay method, and plasma concentrations of INCB001158 were measured using a validated liquid chromatography with tandem mass spectrometry assay (Incyte Corporation, Wilmington, DE, USA). ADAs against retifanlimab were monitored using a bridging immunoassay (Incyte Corporation).
Pharmacokinetics parameters were derived from concentrations versus time data using model‐independent noncompartmental analysis methods (WinNonlin v8.2, Certara USA Inc., Princeton, NJ, USA), and included maximum observed serum or plasma concentration (C max), serum or plasma concentration observed at the end of the dosing interval (C tau), time to maximum observed serum or plasma concentration (t max), area under the serum or plasma concentration–time curve (AUC) from time 0 to the end of the dosing interval (AUCtau), AUC from time 0 to infinity (AUC0‐∞), apparent terminal‐phase disposition half‐life, clearance, and volume of distribution. […]

advanced solid tumors [3] = experiment: Clinical activity by investigator per RECIST v1.1 (ORR, DCR, DOR); format: in vivo, Japanese patients
Procedure: Preliminary clinical activity of single‐agent retifanlimab and INCB001158, and the combination, was an additional secondary endpoint. Diagnostic imaging was performed by computed tomography scan every 8 ± 1 weeks. Clinical activity was assessed by measuring overall response rate (ORR), defined as the percentage of patients experiencing a complete or partial response (CR or PR) as determined by the investigator according to Response Evaluation Criteria in Solid Tumors (RECIST) v1.1; disease control rate (DCR), defined as the percentage of patients maintaining either an objective response or stable disease (SD) for at least 12 weeks per RECIST v1.1; and duration of response (DOR), defined as the time from first observed response until onset of progressive disease (PD) as determined by the investigator according to RECIST v1.1 or death from any cause.
as §1, §2

[4] = test system: ADAs against retifanlimab; experiment: Anti-drug antibodies against retifanlimab (bridging immunoassay); conditions: samples from 12 Japanese patients
Procedure: as §3

[5] = Western patients; ref POD1UM‐101 (NCT03059823); cited from earlier work
advanced solid tumors [6] = conditions: cited from earlier work
[7] = first dose, in combination with INCB001158, n = 3
[8] = first dose, monotherapy 500 mg Q4W, n = 6
[9] = first dose, POD1UM-104 vs POD1UM‐101
[10] = RECIST v1.1, investigator, n = 6 per group
[11] = RECIST v1.1, investigator, n = 6 per group, listed as retifanlimab

Substance: Retifanlimab: humanized, hinge‐stabilized immunoglobulin G4κ monoclonal antibody targeting PD‐1
- Grade 3 AEs reported but not occurring during the treatment window [1]: lymphocyte count decreased
- Retifanlimab infusion interruption because of a TEAE [1]: 1 (16.7) n (%)
- Serious TEAE after data cutoff [1]: myocarditis
- Serious TEAEs (terms) [1]: grade 3 femoral neck fracture (n = 1), grade 3 ileus and pyelonephritis (n = 1)
- TEAE: ALT increased [1]: 1 (16.7) n (%)
- TEAE: AST increased [1]: 1 (16.7) n (%)
- TEAE: Amylase increased [1]: 2 (33.3) n (%)
- TEAE: Anemia [1]: 1 (16.7) n (%)
- TEAE: Blood creatinine increased [1]: 1 (16.7) n (%)
- TEAE: Diarrhea [1]: 1 (16.7) n (%)
- TEAE: Nausea [1]: 1 (16.7) n (%)
- TEAE: Tumor pain [1]: 0 n (%)
- TRAEs reported (terms) [1]: infusion‐related reactions (n = 1), pruritus (n = 1), rash (n = 1), and 1 patient who reported multiple TRAEs, consisting of anemia worsening, fatigue, diarrhea, pruritus, rash, elevated lipase, increased alanine aminotransferase (ALT), and increased aspartate aminotransferase (AST)
- Treatment discontinuation because of a TEAE [1]: 0 n (%)
- Retifanlimab tmax ([2]; 500 mg Q4W i.v. monotherapy, first dose, POD1UM-104, n = 6): 1.9 (1.1, 7.1) h
- Geometric mean clearance normalized for body weight ([2]; Japanese patients [POD1UM‐104]): 3.1 mL/day/kg
- Geometric mean volume of distribution normalized for body weight ([2]; Japanese patients [POD1UM‐104]): 0.0955 L/kg
- Mean Ctau at steady state higher in Japanese than Western patients ([2]; POD1UM-104 vs POD1UM‐101): 43%
- Drug–drug interaction (retifanlimab PK, combination vs monotherapy cohorts) ([2]; combination cohort): no drug–drug interaction
- Retifanlimab tmax ([2]; first dose, 500 mg Q4W in combination with INCB001158, n = 3): 0.82 (0.78, 6.0) h
- Retifanlimab geometric mean AUCtau [2, 7]: 2280 mg·days/L
- Retifanlimab geometric mean Cmax [2, 7]: 187 µg/mL
- Retifanlimab geometric mean Ctau [2, 7]: 19.0 mg/L
- Retifanlimab median tmax [2, 7]: 0.82 h
- Retifanlimab geometric mean AUC0‐∞ [2, 8]: 2990 mg·days/L
- Retifanlimab geometric mean AUCtau [2, 8]: 1910 mg·days/L
- Retifanlimab geometric mean Cmax [2, 8]: 209 µg/mL
- Retifanlimab geometric mean Ctau at the end of the 4‐week dosing period [2, 8]: 33.9 mg/L
- Retifanlimab geometric mean clearance [2, 8]: 0.167 L/day
- Retifanlimab geometric mean half‐life [2, 8]: 509 h
- Retifanlimab half‐life, range [2, 8]: 386 to 730 h
- Retifanlimab median tmax [2, 8]: 1.9 h
- Retifanlimab volume of distribution [2, 8]: 5.12 L
- Geometric mean AUC0‐∞ higher in Japanese than Western patients [2, 9]: 66%
- Geometric mean AUCtau higher in Japanese than Western patients [2, 9]: 47%
- Geometric mean Cmax higher in Japanese than Western patients [2, 9]: 31%
- Retifanlimab trough concentrations from cycle 1 to cycle 7 ([2]; monotherapy, 3 patients with available data): generally increased
- Median DOR (advanced solid tumors [3]; Kaplan–Meier, 95% CI, 6.8 months‐not estimable, median follow‐up 11.6 months): not estimable
- Best overall response: Complete response (advanced solid tumors [3]; [10]): 1 (16.7) n (%)
- Best overall response: Partial response (advanced solid tumors [3]; [10]): 1 (16.7) n (%)
- Best overall response: Progressive disease (advanced solid tumors [3]; [10]): 3 (50.0) n (%)
- Best overall response: Stable disease (advanced solid tumors [3]; [10]): 1 (16.7) n (%)
- Best overall response: Complete response (advanced solid tumors [3]; [11]): 1 n (%)
- Best overall response: Partial response (advanced solid tumors [3]; [11]): 1 n (%)
- Best overall response: Stable disease (advanced solid tumors [3]; [11]): 1 n (%)
- ORR (advanced solid tumors [3]; RECIST v1.1, n = 6, 95% CI, 4.3–77.7): 33.3% and 33%
- DCR (advanced solid tumors [3]; RECIST v1.1, n = 6 per group, 95% CI, 11.8–88.2): 50%
- DOR of the patient with CR (advanced solid tumors [3]; endometrial cancer, ongoing at data cutoff): 16.4 months
- DOR of the patient with PR (advanced solid tumors [3]; lung cancer): 6.8 months
- Retifanlimab ADAs detected [4]: No retifanlimab ADAs were detected; also recorded: No ADAs toward retifanlimab were observed
- Geometric mean clearance normalized for body weight [5]: 4.05 mL/day/kg
- Geometric mean volume of distribution normalized for body weight [5]: 0.0857 L/kg
- Patients with a response (advanced solid tumors [6]; first‐in‐human study, endometrial cancer, 3 of 29 patients): 10%
- Patients with a response (advanced solid tumors [6]; first‐in‐human study, non‐small cell lung cancer, 6 of 26 patients): 23%
- Patients with SD (advanced solid tumors [6]; phase II study, SCAC): 35%
- Patients with a response (advanced solid tumors [6]; phase II study, SCAC): 14%
- Patients with an objective response (advanced solid tumors [6]; recurrent MSI‐H or dMMR endometrial cancer, 33 of 76 patients): 43%
